Experiment [1] has as its system Notch signaling (CBF1 promoter activity) in HUVEC. Briefly: VEGF-induced Notch signaling, CBF1 promoter / CSL-luciferase reporter activity in HUVEC. Type of experiment: cell-based, Human. Conditions: for Inhibition of VEGF-induced CBF1 promoter activity: 40 MOI for each adenovirus; for Effect on VEGF-induced CBF1 promoter / CSL luciferase activity: co-infection (co-transduction) with Ad-VEGF in HUVEC. The protocol:
To determine VEGF-induced Notch signaling, HUVEC which were infected with adenovirus were used. HUVEC plated 1-day prior in 6 well plates at 8.0×10^5 were infected with either Ad-LacZ as control or Ad-VEGF at indicated m.o.i. in the presence or absence of Ad-N1ECD/Fc. Two days after infection, infected HUVEC were re-seeded into 24-well plate at 1.5×10^5 cell in triplicate and cultured for 24 hours, and then transfected with 12.5 ng pRL-SV40 (Promega) and 137.5 ng pGA981-6 using Effectene transfection reagent (Qiagen). Cells were harvested either 1 or 2 days post-transfection and luciferase activity was determined by using the Dual-Luciferase® Reporter Assay System (Promega).
One can measure Notch signaling function by measuring transcriptional activity of CBF1 promoter, which is activated by binding of Notch-IC to CBF1. We measured CBF1 promoter activity in HUVEC which was infected with adenovirus encoding VECF-165 at different MOI (FIG. 6). Induction of CBF1 promoter was clearly detected in Ad-VEGF-infected HUVEC, compared to Ad-LacZ-infected cells in the MOI dependent manner. […] Thus VEGF induced Notch signaling activity.
On the technique in general: A reporter such as luciferase makes a cellular process visible.

In the next experiment the test system is Ad-VEGF-infected HUVEC. Put plainly: VEGF-induced budding (sprouting assay) of Ad-VEGF-HUVEC on collagen gel. Type of experiment: cell-based, Human. Conditions: for Inhibition of VEGF-induced HUVEC budding: co-infection with Ad-VEGF; for Inhibition of VEGF-induced HUVEC budding / Effect of fusion protein adenovirus alone on HUVEC morphology / bud formation: collagen gel; for Effect of fusion protein adenovirus alone on HUVEC morphology / bud formation: without Ad-VEGF. The protocol:
For making collagen gels, an ice-cold solution of porcine type I collagen (Nitta gelatin, Tokyo, Japan) was mixed with 10×RPMI1640 medium and neutralization buffer at the ratio of 8:1:1. 400 μl aliquots of collagen gel were then added to 24-well plates and allowed to gel for at least 1 hour at 37° C. Following adenoviral infection (above), HUVEC was harvested and plated at 1.3×10^5 cells per well onto the top of the collagen gel in 24-well plates in 0.8 ml of EGM2 medium. HUVEC became nearly confluent 48 hours after plating. After seeding, medium was changed every 2 days for 1 week. Sprouting was observed and photographs taken after 8 days with an Olympus digital camera mounted to a microscope. For quantification of the number of sprouts, 5 fields per each well were randomly selected and sprouting was counted under microscopy in a blind manner by two investigators.
HUVEC (Human Umbilical Vein Endothelial cells) growth are dependent on VEGF (FIGS. 26A and 26B) and differentiation-related biological responses, such as sprouting, and can be evaluated at an early stage (7). At first, we examined whether adenovirally transduced VEGF induced both Notch and Notch ligand expression in HUVEC cultured with complete medium containing bFGF (FIG. 22A), as reported (5). […] Transduced-VEGF also activated Notch signaling in a dose-dependent manner by measuring CSL-luciferase reporter activity (FIG. 22B), which was transactivated with Notch signaling (8). Notch signaling was activated at a higher dosage of Ad-VEGF, compared to proliferation (FIG. 26A). […] Since Notch mutants lacking both transmembrane and cytoplasmic domains functioned as dominant negative inhibitors against Notch signaling (9), we made a Notch-based fusion protein or decoy (N1ECDFc) to inhibit Notch signaling (FIG. 22D). […] Then, we examined whether N1ECDFc inhibited activation of Notch signaling by transduced VEGF in HUVEC (FIG. 22G). […] Gerhardt et al. reported that VEGF controlled angiogenesis in the early postnatal retina by guiding filopodia extension at the tips of the vascular sprouts (10). During angiogenic sprouting, the formation of a specialized endothelial cell making filopodia projections among quiescent endothelial cells, might be one of the early events. Here we mean formation of a single endothelial cell making filopodia protrusions as budding. Budding of the primary endothelial cells is induced by cultivating them 3-dimensionally on either fibrin or collagen gel (11). In the case where Ad-VEGF-HUVEC were cultured on collagen gel with complete medium, transduced-HUVEC made filopodia extensions into the collagen gel for 5 days (FIG. 22H) and the number of buds was increased in a dose-dependent manner (FIG. 27A). […] Since both VEGF and Notch signaling induce HUVEC budding, we examined whether N1ECDFc inhibited VEGF-induced HUVEC budding (FIG. 22H-I).

The subject of the next experiment is MMP9. Put plainly: Gelatin zymography of conditioned medium of transduced HUVEC, MMP-9. Conditions: co-transduction with Ad-VEGF; fibrin gel. Type of experiment: cell-based, Human. As to the method: (§1) FIGS. 24A-B show gelatin zymography analysis of MMP-9 and MMP-2 activity stimulated by VEGF in HUVEC. […] Transduced HUVEC were cultured on fibrin gel on the indicated day (i.e. D2, D4, D6, D8). Similar results were also obtained by using collagen gel, although induction of MMP-9 was stronger on fibrin gel than collagen gel (data not shown). […] HUVEC were transduced with Ad-N1ECDFc at the indicated doses and condition medium was collected from HUVEC cultured on collagen gel at day 4. FIGS. 24C-D show up-regulation of MMP-9 and MT1-MMP with Notch signaling. HUVEC were transduced with either Ad-LacZ or Ad-N1IC at 40 MOI. Numbers show PCR cycles. […] HUVEC were transduced with Ad-VEGF in the absence or presence of co-transduction of Ad-N1ECDFc at 40 MOI each. Ad-LacZ was co-transduced to make the same total amount of adenovirus at 80 MOI.
(§2) Requisition of MMPs for angiogenic sprouting has been established by synthetic MMP inhibitors (16). GM6001 is one broad inhibitor against MMPs including MMP2, MMP9 and MT1-MMP (18).

In another experiment the test system is MT1-MMP mRNA. Briefly: RT-PCR analysis of MT1-MMP expression in Ad-VEGF-HUVEC. Type of experiment: cell-based, Human. As to the method:
as §1, §2

Experiment [2] concerns VEGF-induced angiogenesis. Put plainly: Mouse Dorsa Air Sac (DAS) assay of in vivo angiogenesis. Conditions: for VEGF-induced angiogenesis / neo-vascularization in vivo (summary statement): mouse. An excerpt:
These Figures show the role of Notch signaling in VEGF-dependent in vivo angiogenesis. […] Representative photographs are shown. FIG. 25A show subcutaneous induced angiogenesis with 293/VEGF transfectant versus 293/VEGF also expressing Notch decoy (Notch-based fusion protein) N1ECDFc. […] MDA-MB-231 breast cancer cells produce VEGF (data not shown).

[3] abbreviates: listed as Ad-Notch fusion protein.
The mark [4] stands for this setting: listed as Ad-Notch-based fusion protein.

Entries after “also recorded” stand apart in the source; their conditions may differ.

B1: N1ECDFc: Notch-based fusion protein or decoy: extracellular domain of Notch1 containing the EGF-repeats fused to the Fc portion of an antibody (protein)
chain: ARGLRCSQPSGTCLNGGRCEVANGTEACVCSGAFVGQRCQDPSPCLSTPCKNAGTCYVVDHGGIVDYACSCPLGFSGPLCLTPLANACLANPCRNGGTCDLLTLTEYKCRCPPGWSGKSCQQADPCASNPCANGGQCLPFESSYICGCPPGFHGPTCRQDVNECSQNPGLCRHGGTCHNEIGSYRCACRATHTGPHCELPYVPCSPSPCQNGGTCRPTGDTTHECACLPGFAGQNCEENVDDCPGNNCKNGGACVDGVNTYNCRCPPEWTGQYCTEDVDECQLMPNACQNAGTCHNSHGGYNCVCVNGWTGEDCSDNIDDCASAACFQGATCHDRVASFYCECPHGRTGLLCHLNDACISNPCNEGSNCDTNPVNGKAICTCPRGYTGPACSQDVDECALGANPCEHAGKCLNTLGSFECQCLQGYTGPRCEIDVNECISNPCQNDATCLDQIGEFQCICMPGYEGVYCEINTDECASSPCLHNGRCVDKINEFLCQCPKGFSGHLCQYDVDECASTPCKNGAKCLDGPNTYTCVCTEGYTGTHCEVDIDECDPDPCHIGLCKDGVATFTCLCQPGYTGHHCETNINECHSQPCRHGGTCQDRDNYYLCLCLKGTTGPNCEINLDDCASNPCDSGTCLDKIDGYECACEPGYTGSMCNVNIDECAGSPCHNGGTCEDGIAGFTCRCPEGYHDPTCLSEVNECNSNPCIHGACRDGLNGYKCDCAPGWSGTNCDINNNECESNPCVNGGTCKDMTSGYVCTCREGFSGPNCQTNINECASNPCLNQGTCIDDVAGYKCNCPLPYTGATCEVVLAPCATSPCKNSGVCKESEDYESFSCVCPTGWQGQTCEIDINECVKSPCRHGASCQNTNGSYRCLCQAGYTGRNCESDIDDCRPNPCHNGGSCTDGVNAAFCDCLPGFQGAFCEEDINECATNPCQNGANCTDCVDSYTCTCPTGFNGIHCENNTPDCTESSCFNGGTCVDGINSFTCLCPPGFTGSYCQYDVNECDSRPCLHGGTCQDSYGTYKCTCPQGYTGLNCQNLVRWCDSAPCKNGGKCWQTNTQYHCECRSGWTGFNCDVLSVSCEVAAQKRGIDVTLLCQHGGLCVDEEDKHYCHCQAGYTGSYCEDEVDECSPNPCQNGATCTDYLGGFSCKCVAGYHGSNCSEEINECLSQPCQNGGTCIDLTNTYKCSCPRGTQGVHCEINVDDCHPPLDPASRSPKCFNNGTCVDQVGGYTCTCPPGFVGERCEGDVNECLSNPCDPRGTQNCVQRVNDFHCECRAGHTGRRCESVINGCRGKPCRNGGVCAVASNTARGFICRCPARFEGATCENDARTCGSLRCLNGGTCISGPRSPTCLCLGSFTGPECQFPASSPCVGSNPCYNQGTCEPTSESPFYRCLCPAKFNGLLCHILDYSFTDLGPG
modifications: left off: a dimerising Fc or GST
notes: Notch-based fusion protein or decoy: extracellular domain of Notch1 containing the EGF-repeats fused to the Fc portion of an antibody
On to B1, for which the “Inhibition of VEGF-induced CBF1 promoter activity” value in experiment [1] (24 hr after reporter gene transfection) is on record as 60%; in experiment [1] (48 hr after reporter gene transfection), 90%. The “Effect on VEGF-induced CBF1 promoter / CSL luciferase activity” value in experiment [1] (listed as Ad-N1ECDFc) is “clearly decreased CSL luciferase activity induced by VEGF”; in experiment [1] (setting [3]), “clearly reduced activation of CBF1 promoter activity”; in experiment [1] (setting [4]) it was “clearly reduced activation of CBF1 promoter activity”. For the same molecule, the “MOI dependence of the inhibitory activity on VEGF-induced CBF1 promoter activity” value in experiment [1] (co-infection with Ad-VEGF in HUVEC) was “dependent on MOI”. For the same molecule, the “Inhibition of VEGF-induced HUVEC budding” value in the experiment with Ad-VEGF-infected HUVEC was “clearly inhibited”; with Ad-VEGF-infected HUVEC (listed as Ad-N1ECDFc), “clearly inhibited; also recorded: inhibition of budding”; in the experiment on Ad-VEGF-infected HUVEC (listed as Notch fusion protein), “clearly inhibited; also recorded: could inhibit VEGF-induced budding”. Also, in the experiment on Ad-VEGF-infected HUVEC (co-transduction with Ad-VEGF), the “Cell number in VEGF-induced HUVEC budding assay” value is “without affecting cell number”. Besides, the “Effect of fusion protein adenovirus alone on HUVEC morphology / bud formation” value in the experiment with Ad-VEGF-infected HUVEC (listed as Ad-N1ECDFc) is “Neither Ad-LacZ or Ad-N1ECDFc-transduced HUVEC formed buds”; in the experiment on Ad-VEGF-infected HUVEC (setting [3]) it was “had less effect on morphology”; with Ad-VEGF-infected HUVEC (setting [4]), “had less effect on morphology”. The “VEGF-stimulated induction and activation of MMP9 (gelatin zymography)” value with MMP9 was “inhibition of both induction and activation of MMP9”. The “Expression of MT1-MMP, fusion protein adenovirus alone” value with MT1-MMP mRNA (Ad-LacZ infected HUVEC, data not shown) is recorded as “did not affect expression of either MMP9 or MT1-MMP”. Further, the “VEGF-induced up-regulation of MT1-MMP mRNA” value with MT1-MMP mRNA (co-transduction with Ad-VEGF, 40 MOI each) is “this induction was inhibited”. The “Vessel density, index of angiogenesis, MDA-MB-231” value in experiment [2] (Ad-N1ECDFc infected MDA-MB-231 cells) was “is inhibited”. Moreover, the “Induction of VEGFR-1 expression in vivo” value in experiment [2] (VEGF-induced skin neovascularization model) was “blocks”. In experiment [2] (adenovirus mediated expression, compared to adenovirus expressing LacZ), the “Inhibition of MDA-MB-231-induced in vivo angiogenesis” value was “clearly inhibited”. Also, the “Vessel density, index of angiogenesis, 293/VEGF” value in experiment [2] (co-expression of 293/N1ECDFc) was “is inhibited”. The “Inhibition of 293/VEGF-induced in vivo angiogenesis” value in experiment [2] (coexpression in 293/VEGF transfectant, compared to 293/VEGF alone) is given as “clearly inhibited”. Further, the “VEGF-induced angiogenesis / neo-vascularization in vivo (summary statement)” value is “inhibition of VEGF-induced angiogenesis” in experiment [2] and “blocks VEGF-induced neo-vascularization” in experiment [2] (listed as Notch-based fusion protein).

The values above are taken from patent US8993725B2, “Notch-based fusion proteins and uses thereof” (The Trustees of Columbia University in the City of New York, priority 2004, dated 2015).
